Assay results as given in paper PMC2885444 (The Biochemical journal, 2009).

Molecular target: CHD4 PHD2 finger, wild type (UniProt Q14839 446-501)
Test: other fluorescence titration + NMR titration

Binder: ARTKQTARKSTG (trimethyl-lysine at 4) [H3K4me3 peptide (12-mer histone tail peptide)]
- Kd: 2000 µM
